The text below walks through data of patent US20200407750A1.

The target of assay [1] is AAV9.RGNRQ capsid mutant (adeno-associated virus 9 (AAV9), mutant). As to the kind of experiment: cell-based or functional assay.
In assay [2] the target is AAV9.SSNTA capsid mutant (adeno-associated virus 9 (AAV9), mutant). Nature of the assay: cell-based or functional assay.
Assay [3] concerns the target AAV9.TQAAA capsid mutant (adeno-associated virus 9 (AAV9), mutant). Nature of the assay: cell-based or functional assay.
Assay [4] concerns the target AAV9.RGHRE capsid mutant (adeno-associated virus 9 (AAV9), mutant). As to the kind of experiment: cell-based or functional assay.
The target in assay [5] is AAV9.SAQAN capsid mutant (adeno-associated virus 9 (AAV9), mutant). Nature of the assay: cell-based or functional assay.
For assay [6], the target named is AAV9.SAQAA capsid mutant (adeno-associated virus 9 (AAV9), mutant). Nature of the assay: cell-based or functional assay.
Assay [7] deals with AAV9.QQNAA capsid mutant (adeno-associated virus 9 (AAV9), mutant). Nature of the assay: cell-based or functional assay.
For assay [8], the target named is AAV9.AAQAA capsid mutant (adeno-associated virus 9 (AAV9), mutant). As to the kind of experiment: cell-based or functional assay.
In assay [9] the target is AAV9.WT capsid (AAV9 vector) (adeno-associated virus 9 (AAV9)). As to the kind of experiment: cell-based or functional assay.
The target of assay [10] is AAV9.RGNRQ capsid mutant (adeno-associated virus 9 (AAV9), mutant). Nature of the assay: capsid capture ELISA, as told in the discussion. (In general: In an ELISA, binding on a coated surface is turned into a signal by an enzyme label.)
The target is the same in assay [11]. Nature of the assay: capsid capture ELISA, EC50 from dose-response fit.
Assay [12] concerns the target AAV9.SSNTA capsid mutant (adeno-associated virus 9 (AAV9), mutant). As to the kind of experiment: capsid capture ELISA, EC50 from dose-response fit.
Assay [13] concerns the target AAV9.TQAAA capsid mutant (adeno-associated virus 9 (AAV9), mutant). As to the kind of experiment: capsid capture ELISA, EC50 from dose-response fit.
The target of assay [14] is AAV9.RGHRE capsid mutant (adeno-associated virus 9 (AAV9), mutant). Nature of the assay: capsid capture ELISA, EC50 from dose-response fit.
Assay [15] addresses AAV9.SAQAN capsid mutant (adeno-associated virus 9 (AAV9), mutant). Nature of the assay: capsid capture ELISA, EC50 from dose-response fit.
The target of assay [16] is AAV9.SAQAA capsid mutant (adeno-associated virus 9 (AAV9), mutant). Nature of the assay: capsid capture ELISA, EC50 from dose-response fit.
For assay [17], the target named is AAV9.QQNAA capsid mutant (adeno-associated virus 9 (AAV9), mutant). Nature of the assay: capsid capture ELISA, EC50 from dose-response fit.
For assay [18], the target named is AAV9.AAQAA capsid mutant (adeno-associated virus 9 (AAV9), mutant). Nature of the assay: capsid capture ELISA, EC50 from dose-response fit.
For assay [19], the target named is AAV9.WT capsid (AAV9 vector) (adeno-associated virus 9 (AAV9)). As to the kind of experiment: capsid capture ELISA, EC50 from dose-response fit.

A value given as a limit tells only on which side of the number the result lay.

As for PAV9.1 monoclonal antibody, the Fold reduction NAb titer in assay [1] is 8 fold; in [2], 512 fold; in assay [3] it was 16 fold; in assay [4], over 2048 fold; in assay [5], 16 fold; in [6] it was 4 fold. Moreover, the figures for the Fold reduction NAb titer in assay [7], in assay [8] and in [9] were 128 fold, 16 fold and 1 fold, respectively. In [4], this substance showed an NAb titer of PAV9.1 (reciprocal dilution) of under 80. In addition, the effective NAb titer (NAb assay, transduction of HEK293 cells) (reciprocal dilution) in assay [9] was determined as 164000. The same substance returned a fold reduction in binding (relative to WT.AAV9) in assay [10] of 50 fold. The Fold increase EC50 (relative to AAV9.WT) in [11] worked out at 96 fold; in assay [12] it was 264 fold; in [13], 15 fold; in [14], 294 fold; in assay [15], 40 fold; in assay [16], 20 fold. For the same substance, the Fold increase EC50 (relative to AAV9.WT) in [17] was found to be 124 fold; in [18], 45 fold; in [19], 1 fold.
